Source: publication PMC5716075, “Conserved asymmetry underpins homodimerization of Dicer-associated double-stranded RNA-binding proteins” (Nucleic Acids Research, 2017)

B1: Loqs-D3 (Loquacious residues 392-463, dsRBD 3), wild type [Drosophila] / itself (parent)
chain: IDYIKLLGEIATENQFEVTYVDIEEKTFSGQFQCLVQLSTLPVGVCHGSGPTAADAQRHAAQNALEYLKIMT
B2: PACT-Ext-D3 (PACT residues 208-313, dsRBD 3 with the conserved N-terminal extension), wild type [human] / itself (parent)
chain: GHSLGCTWHSLRNSPGEKINLLKRSLLSIPNTDYIQLLSEIAKEQGFNITYLDIDELSANGQYQCLAELSTSPITVCHGSGISCGNAQSDAAHNALQYLKIIAERK
B3: PACT-D3 (PACT residues 239-313, core dsRBD 3), wild type [human] / itself (parent)
chain: TDYIQLLSEIAKEQGFNITYLDIDELSANGQYQCLAELSTSPITVCHGSGISCGNAQSDAAHNALQYLKIIAERK

Variants of: B1
Test: SEC-MALLS
Conditions: with itself

screen value [kDa]	Variant
8	chain 1 L35R

Variants of: B2
Test: SEC-MALLS
Conditions: with itself

screen value [kDa]	Variant
12.3	chain 1 L66R

Variants of: B3
Test: SEC-MALLS
Conditions: with itself

screen value [kDa]	Variant
8.8	chain 1 L35R
